{"source": "patent US20060123518A1", "about": "“Methods for culturing cereal endosperm” (Pioneer Hi-Bred International, Inc., priority 2004, published 2006)", "molecules": {"B1": {"name": "calpastatin (protein, UniProt P20810 1-708, looked up)", "Calpastatin": "MNPTETKAIPVSQQMEGPHLPNKKKHKKQAVKTEPEKKSQSTKLSVVHEKKSQEGKPKEHTEPKSLPKQASDTGSNDAHNKKAVSRSAEQQPSEKSTEPKTKPQDMISAGGESVAGITAISGKPGDKKKEKKSLTPAVPVESKPDKPSGKSGMDAALDDLIDTLGGPEETEEENTTYTGPEVSDPMSSTYIEELGKREVTIPPKYRELLAKKEGITGPPADSSKPIGPDDAIDALSSDFTCGSPTAAGKKTEKEESTEVLKAQSAGTVRSAAPPQEKKRKVEKDTMSDQALEALSASLGTRQAEPELDLRSIKEVDEAKAKEEKLEKCGEDDETIPSEYRLKPATDKDGKPLLPEPEEKPKPRSESELIDELSEDFDRSECKEKPSKPTEKTEESKAAAPAPVSEAVCRTSMCSIQSAPPEPATLKGTVPDDAVEALADSLGKKEADPEDGKPVMDKVKEKAKEEDREKLGEKEETIPPDYRLEEVKDKDGKPLLPKESKEQLPPMSEDFLLDALSEDFSGPQNASSLKFEDAKLAAAISEVVSQTPASTTQAGAPPRDTSQSDKDLDDALDKLSDSLGQRQPDPDENKPMEDKVKEKAKAEHRDKLGERDDTIPPEYRHLLDDNGQDKPVKPPTKKSEDSKKPADDQDPIDALSGDLDSCPSTTETSQNTAKDKCKKAASSSKAPKNGGKAKDSAKTTEETSKPKDD"}}, "system": "aleurone cell development", "experiment": "Chemical genetics with in vitro cultured endosperm expressing Ltp2-driven ZsYellow in aleurone cells", "format": "cell-based, maize", "conditions": "in vitro endosperm cultures in liquid proliferation medium, 96 well plates; predicted result", "procedure": "In vitro cultured endosperm produced by the methods of the present invention and that express the ZsYellow fluorescent protein in aleurone cells under the control of the Ltp2 promoter are plated in 96 well microtiter plates with one endosperm added per well in liquid proliferation medium. To each well, a candidate chemical to be evaluated is added. The effect of the chemical on aleurone cell development is evaluated, for example, as the loss of aleurone cell identity as detected as lack of yellow fluorescence, either on the whole surface of the in vitro cultured endosperm or in patches on the surface. For example, a chemical genetics approach can be used to assess the function of the Dek1 gene product. The defective kernel 1 (dek1) gene is required for aleurone cell development in the endosperm of maize grains and this gene encodes a membrane protein of the calpain gene superfamily (Lid et al. (2002) Proc. Natl. Acad. Sci. USA. 99(8):5460-5465). Using mutant sector analysis, it has been shown that, if an aleurone cell looses the Dek1 gene function, the cell loses its aleurone cell identity and converts to a starchy endosperm cell fate (Becraft et al. (2000) Development 127:4039-4048). n this example, in vitro endosperm cultures are exposed to the calpain inhibitor calpastatin by the method described above."}
{"molecule": "B1", "values": [{"measurement": "effect on aleurone cell identity (yellow fluorescence on endosperm surface)", "value": "lack of fluorescence in spot on the surface"}]}
